Target: the molecule itself
Assay: crystal structure; hanging drop vapor diffusion at 18 °C; 25% PEG3350, 50 mM Tris pH8.5, 200 mM di-sodium tartrate; no reducing agents present; space group P1, eight molecules in the asymmetric unit

B1: glucocorticoid receptor (GR) DNA binding domain (DBD), residues 418–517 (domain or fragment, UniProt P04150 418-517, looked up)
chain: PKLCLVCSDEASGCHYGVLTCGSCKVFFKRAVEGQHNYLCAGRNDCIIDKIRRKNCPACRYRKCLQAGMNLEARKTKKKIKGIQQATTGVSQETSENPGN
notes: In the crystal two molecules are linked by a disulfide bridge via Cys431 (no reducing agents during crystallization); Each molecule holds two Zn2+; Mixed with a 35 nt RNA hairpin before crystallization, but no nucleic acid was found in the crystal; also called GR DBD; free GR DBD; not shown: His6-Sumo, N-terminal, cleaved
- binding result: binds

Source: publication PMC6131172, “The first crystal structure of a DNA-free nuclear receptor DNA binding domain sheds light on DNA-driven allostery in the glucocorticoid receptor” (Scientific Reports, 2018)
